Reference: US20210388087A1 (Chugai, published 2021)
Residue numbers refer to the chain shown, from its start. In names and notes the source's numbering stands. Each block holds one binder with its values, some of them ahead of it.

Target: T1, CD3 epsilon homodimer protein (UniProt P07766 23-126)
T1 construct: immobilized on Sensor chip CM4 by amine coupling; also called CD3 (CD3 epsilon)
Test: SPR (Biacore T200), CD3 epsilon homodimer on CM4 chip, one-arm antibody as analyte, 25 C;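 also: homodimer attached to the sensor surface via amine coupling, HBS-EP+ used as running buffer during binding runs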
Procedure: An appropriate amount of CD3 epsilon homodimer protein was immobilized onto Sensor chip CM4 (GE Healthcare Japan Corp.) by the amine coupling method. Then, the antibody having an appropriate concentration was injected thereto as an analyte and allowed to interact with the CD3 epsilon homodimer protein on the sensor chip. Then, the sensor chip was regenerated by the injection of 10 mmol/L glycine-HCl (pH 1.5). The assay was conducted at 25 degrees C., and HBS-EP+(GE Healthcare Japan Corp.) was used as a running buffer. […] Each parameter was calculated using Biacore T200 Evaluation Software (GE Healthcare Japan Corp.).

T1 sequence (P07766 23-126): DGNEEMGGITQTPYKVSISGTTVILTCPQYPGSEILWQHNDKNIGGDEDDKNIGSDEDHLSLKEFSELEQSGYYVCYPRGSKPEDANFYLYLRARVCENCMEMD

- ratio of amounts bound (altered form / CE115HA000): 0.61
B1: CE115HA000 T57I one-arm antibody (antibody, human IgG1, kappa, L234A L235A, N297A, name in Kabat numbering)
heavy: QVQLVESGGGVVQPGRSLRLSCAASGFTFSNAWMHWVRQAPGKGLEWVAQIKAKSNNYAIYYAESVKGRFTISRDDSKNSLYLQMNSLKTEDTAVYYCRYVHYGAYYGVDAWGQGTTVTVSSASTKGPSVFPLAPSSKSTSGGTAALGCLVKDYFPEPVTVSWNSGALTSGVHTFPAVLQSSGLYSLSSVVTVPSSSLGTQTYICNVNHKPSNTKVDKKVEPKSCDKTHTCPPCPAPEAAGGPSVFLFPPKPKDTLMISRTPEVTCVVVDVSHEDPEVKFNWYVDGVEVHNAKTKPREEQYASTYRVVSVLTVLHQDWLNGKEYKCKVSNKALPAPIEKTISKAKGQPREPQVYTLPPSRCELTKNQVSLSCAVKGFYPSDIAVEWESNGQPENNYKTTPPVLDSDGSFFLVSKLTVDKSRWQQGNVFSCSVMHEALHNHYTQKSLSLSPDYKDDDDK
chain: EPKSSDKTHTCPPCPAPELLGGPSVFLFPPKPKDTLMISRTPEVTCVVVDVSHEDPEVKFNWYVDGVEVHNAKTKPREEQYNSTYRVVSVLTVLHQDWLNGKEYKCKVSNKALPAPIEKTISKAKGQPREPQVCTLPPSRDELTKNQVSLWCLVKGFYPSDIAVEWESNGQPENNYKTTPPVLDSDGSFFLYSKLTVDKSRWQQGNVFSCSVMHEALHNRYTQKSLSLSP
light: DIVMTQSPLSLPVTPGEPASISCRSSQSLVHSNRNTYLHWYQQKPGQAPRLLIYKVSNRFSGVPDRFSGSGSGTDFTLKISRVEAEDVGVYYCGQGTQVPYTFGQGTKLEIKRTVAAPSVFIFPPSDEQLKSGTASVVCLLNNFYPREAKVQWKVDNALQSGNSQESVTEQDSKDSTYSLSSTLTLSKADYEKHKVYACEVTHQGLSSPVTKSFNRGEC

- ratio of amounts bound (altered form / CE115HA000): 0.19
B2: CE115HA000 V95G one-arm antibody (antibody, human IgG1, kappa, L234A L235A, N297A, name in Kabat numbering)
heavy: B1 heavy with I60T, V101G
chain: B1 chain
light: B1 light

- ratio of amounts bound (altered form / CE115HA000): 0.46
B3: CE115HA000 V100cE one-arm antibody (antibody, human IgG1, kappa, L234A L235A, N297A, name in Kabat numbering)
heavy: B1 heavy with I60T, V109E
chain: B1 chain
light: B1 light

- ratio of amounts bound (altered form / CE115HA000): 0.22
B4: CE115HA000 V95S one-arm antibody (antibody, human IgG1, kappa, L234A L235A, N297A, name in Kabat numbering)
heavy: B1 heavy with I60T, V101S
chain: B1 chain
light: B1 light

- ratio of amounts bound (altered form / CE115HA000): 0.44
B5: CE115HA000 V100cD one-arm antibody (antibody, human IgG1, kappa, L234A L235A, N297A, name in Kabat numbering)
heavy: B1 heavy with I60T, V109D
chain: B1 chain
light: B1 light

- ratio of amounts bound (altered form / CE115HA000): 0.65
B6: CE115HA000 W33F one-arm antibody (antibody, human IgG1, kappa, L234A L235A, N297A, name in Kabat numbering)
heavy: B1 heavy with W33F, I60T
chain: B1 chain
light: B1 light

- ratio of amounts bound (altered form / CE115HA000): 0.33
B7: CE115HA000 Y58N one-arm antibody (antibody, human IgG1, kappa, L234A L235A, N297A, name in Kabat numbering)
heavy: B1 heavy with I60T, Y61N
chain: B1 chain
light: B1 light

- ratio of amounts bound (altered form / CE115HA000): 0.45
B8: CE115HA000 Y55D one-arm antibody (antibody, human IgG1, kappa, L234A L235A, N297A, name in Kabat numbering)
heavy: B1 heavy with Y58D, I60T
chain: B1 chain
light: B1 light

- ratio of amounts bound (altered form / CE115HA000): 0.66
B9: CE115HA000 Y59E one-arm antibody (antibody, human IgG1, kappa, L234A L235A, N297A, name in Kabat numbering)
heavy: B1 heavy with I60T, Y62E
chain: B1 chain
light: B1 light

- ratio of amounts bound (altered form / CE115HA000): 0.3
B10: CE115HA000 Y58K one-arm antibody (antibody, human IgG1, kappa, L234A L235A, N297A, name in Kabat numbering)
heavy: B1 heavy with I60T, Y61K
chain: B1 chain
light: B1 light

- ratio of amounts bound (altered form / CE115HA000): 0.1
B11: CE115HA000 W33A one-arm antibody (antibody, human IgG1, kappa, L234A L235A, N297A, name in Kabat numbering)
heavy: B1 heavy with W33A, I60T
chain: B1 chain
light: B1 light

- ratio of amounts bound (altered form / CE115HA000): 0.1
B12: CE115HA000 W33L one-arm antibody (antibody, human IgG1, kappa, L234A L235A, N297A, name in Kabat numbering)
heavy: B1 heavy with W33L, I60T
chain: B1 chain
light: B1 light

- ratio of amounts bound (altered form / CE115HA000): 0.13
B13: CE115HA000 W33H one-arm antibody (antibody, human IgG1, kappa, L234A L235A, N297A, name in Kabat numbering)
heavy: B1 heavy with W33H, I60T
chain: B1 chain
light: B1 light

- ratio of amounts bound (altered form / CE115HA000): 0.18
B14: CE115HA000 Y58S one-arm antibody (antibody, human IgG1, kappa, L234A L235A, N297A, name in Kabat numbering)
heavy: B1 heavy with I60T, Y61S
chain: B1 chain
light: B1 light

- ratio of amounts bound (altered form / CE115HA000): 0.2
B15: CE115HA000 V100cP one-arm antibody (antibody, human IgG1, kappa, L234A L235A, N297A, name in Kabat numbering)
heavy: B1 heavy with I60T, V109P
chain: B1 chain
light: B1 light

- ratio of amounts bound (altered form / CE115HA000): 0.19
B16: CE115HA000 Y58Q one-arm antibody (antibody, human IgG1, kappa, L234A L235A, N297A, name in Kabat numbering)
heavy: B1 heavy with I60T, Y61Q
chain: B1 chain
light: B1 light

- ratio of amounts bound (altered form / CE115HA000): 0.64
B17: CE115HA000 V95K one-arm antibody (antibody, human IgG1, kappa, L234A L235A, N297A, name in Kabat numbering)
heavy: B1 heavy with I60T, V101K
chain: B1 chain
light: B1 light

- ratio of amounts bound (altered form / CE115HA000): 0.22
B18: CE115HA000 Y58A one-arm antibody (antibody, human IgG1, kappa, L234A L235A, N297A, name in Kabat numbering)
heavy: B1 heavy with I60T, Y61A
chain: B1 chain
light: B1 light

- ratio of amounts bound (altered form / CE115HA000): 1.32
B19: CE115HA000 T57K one-arm antibody (antibody, human IgG1, kappa, L234A L235A, N297A, name in Kabat numbering)
heavy: B1 heavy with I60K
chain: B1 chain
light: B1 light

- ratio of amounts bound (altered form / CE115HA000): 0.11
B20: CE115HA000 Y58D one-arm antibody (antibody, human IgG1, kappa, L234A L235A, N297A, name in Kabat numbering)
heavy: B1 heavy with I60T, Y61D
chain: B1 chain
light: B1 light

- ratio of amounts bound (altered form / CE115HA000): 0.11
B21: CE115HA000 V95A one-arm antibody (antibody, human IgG1, kappa, L234A L235A, N297A, name in Kabat numbering)
heavy: B1 heavy with I60T, V101A
chain: B1 chain
light: B1 light

- ratio of amounts bound (altered form / CE115HA000): 0.85
B22: CE115HA000 Y59A one-arm antibody (antibody, human IgG1, kappa, L234A L235A, N297A, name in Kabat numbering)
heavy: B1 heavy with I60T, Y62A
chain: B1 chain
light: B1 light

- ratio of amounts bound (altered form / CE115HA000): 0.55
B23: CE115HA000 Y55G one-arm antibody (antibody, human IgG1, kappa, L234A L235A, N297A, name in Kabat numbering)
heavy: B1 heavy with Y58G, I60T
chain: B1 chain
light: B1 light

- ratio of amounts bound (altered form / CE115HA000): 0.97
B24: CE115HA000 T57N one-arm antibody (antibody, human IgG1, kappa, L234A L235A, N297A, name in Kabat numbering)
heavy: B1 heavy with I60N
chain: B1 chain
light: B1 light

- ratio of amounts bound (altered form / CE115HA000): 0.94
B25: CE115HA000 Y59S one-arm antibody (antibody, human IgG1, kappa, L234A L235A, N297A, name in Kabat numbering)
heavy: B1 heavy with I60T, Y62S
chain: B1 chain
light: B1 light

- ratio of amounts bound (altered form / CE115HA000): 0.27
B26: CE115HA000 Y58L one-arm antibody (antibody, human IgG1, kappa, L234A L235A, N297A, name in Kabat numbering)
heavy: B1 heavy with I60T, Y61L
chain: B1 chain
light: B1 light

- ratio of amounts bound (altered form / CE115HA000): 0.1
B27: CE115HA000 W33D one-arm antibody (antibody, human IgG1, kappa, L234A L235A, N297A, name in Kabat numbering)
heavy: B1 heavy with W33D, I60T
chain: B1 chain
light: B1 light

- ratio of amounts bound (altered form / CE115HA000): 0.7
B28: CE115HA000 Y59D one-arm antibody (antibody, human IgG1, kappa, L234A L235A, N297A, name in Kabat numbering)
heavy: B1 heavy with I60T, Y62D
chain: B1 chain
light: B1 light

- ratio of amounts bound (altered form / CE115HA000): 0.66
B29: CE115HA000 W33Y one-arm antibody (antibody, human IgG1, kappa, L234A L235A, N297A, name in Kabat numbering)
heavy: B1 heavy with W33Y, I60T
chain: B1 chain
light: B1 light

- ratio of amounts bound (altered form / CE115HA000): 0.24
B30: CE115HA000 V95D one-arm antibody (antibody, human IgG1, kappa, L234A L235A, N297A, name in Kabat numbering)
heavy: B1 heavy with I60T, V101D
chain: B1 chain
light: B1 light

- ratio of amounts bound (altered form / CE115HA000): 0.24
B31: CE115HA000 V95E one-arm antibody (antibody, human IgG1, kappa, L234A L235A, N297A, name in Kabat numbering)
heavy: B1 heavy with I60T, V101E
chain: B1 chain
light: B1 light

- ratio of amounts bound (altered form / CE115HA000): 0.26
B32: CE115HA000 Y55S one-arm antibody (antibody, human IgG1, kappa, L234A L235A, N297A, name in Kabat numbering)
heavy: B1 heavy with Y58S, I60T
chain: B1 chain
light: B1 light

- ratio of amounts bound (altered form / CE115HA000): 1
B33: CE115HA000 V11L one-arm antibody (antibody, human IgG1, kappa, L234A L235A, N297A, name in Kabat numbering)
heavy: B1 heavy with V11L, I60T
chain: B1 chain
light: B1 light
